# Reference: patent US20140162960
# T1: myc-tagged IQGAP1 WW domain expressed from lentivirus (pLEX-mycWW)
# T1 chain: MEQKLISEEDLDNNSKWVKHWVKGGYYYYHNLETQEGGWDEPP
# B1: ERK1 (extracellular signal-regulated kinase 1), endogenous (protein)
# chain: AAAAAQGGGGGEPRRTEGVGPGVPGEVEMVKGQPFDVGPRYTQLQYIGEGAYGMVSSAYDHVRKTRVAIKKISPFEHQTYCQRTLREIQILLRFRHENVIGIRDILRASTLEAMRDVYIVQDLMETDLYKLLKSQQLSNDHICYFLYQILRGLKYIHSANVLHRDLKPSNLLINTTCDLKICDFGLARIADPEHDHTGFLTEYVATRWYRAPEIMLNSKGYTKSIDIWSVGCILAEMLSNRPIFPGKHYLDQLNHILGILGSPSQEDLNCIINMKARNYLQSLPSKTKVAWAKLFPKSDSKALDLLDRMLTFNPNKRITVEEALAHPYLEQYYDPTDEPVAEEPFTFAMELDDLPKERLKELIFQETARFQPGVLEAP
# Assays:
# [1] = target: T1, myc-tagged IQGAP1 WW domain expressed …
# [2] = target: myc-tagged mutant IQGAP1 WW domain expressed from lentivirus (pLEX-mycYY)
protein,measurement,setting,value
B1,"pELK1 levels in IP-kinase assay (pERK immunoprecipitate, ELK-1 substrate)",[1],revealed diminished downstream pELK1 levels as compared to control treated cells
same,phosphorylated ERK levels (tissue stain and immunoblot),[1],WW domain expressing tissue also showed diminished phosphorylated ERK without an effect on total ERK levels
same,phosphorylated ERK levels (immunoblot),[2],Primary normal human keratinocytes infected with this WW domain mutant had normal levels of phosphorylated ERK
